According to patent CN115368455A:

Target: SIRPg (UniProt Q9P1W8)
Assay: SPR (BIAcore X-100); ratio of the affinity for SIRPa to that for SIRPg

UniProt Q9P1W8, sequence (Q9P1W8 29-360 limits assumed): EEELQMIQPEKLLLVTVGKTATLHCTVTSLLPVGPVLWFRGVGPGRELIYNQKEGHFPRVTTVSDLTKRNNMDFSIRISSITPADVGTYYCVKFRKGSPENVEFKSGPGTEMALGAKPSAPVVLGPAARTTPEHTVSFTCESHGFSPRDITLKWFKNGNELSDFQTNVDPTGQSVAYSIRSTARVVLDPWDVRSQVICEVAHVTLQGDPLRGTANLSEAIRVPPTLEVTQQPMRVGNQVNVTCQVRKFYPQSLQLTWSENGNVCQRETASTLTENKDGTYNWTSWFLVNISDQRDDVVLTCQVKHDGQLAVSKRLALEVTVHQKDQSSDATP

B1: KWAR23 (antibody, from another filing, V domains shown)
VH: EVQLQQSGAELVKPGASVKLSCTASGFNIKDYYIHWVQQRTEQGLEWIGRIDPEDGETKYAPKFQDKATITADTSSNTAYLHLSSLTSEDTAVYYCARWGAYWGQGTLVTVSS
VL: QIVLTQSPAIMSASPGEKVTLTCSASSSVSSSYLYWYQQKPGSSPKLWIYSTSNLASGVPARFSGSGSGTSYSLTISSMEAEDAASYFCHQWSSYPRTFGAGTKLELK
- SIRPa/SIRPg亲和力比值: < 1
